From patent US20020151477, “Nuclear receptor coactivator” (published 2002)

Experiments:
[1] = target: T1, TRα/RXRα heterodimer (Homo sapiens (TRα) / Rattus norvegicus …, UniProt P10827-2;Q05343 P10827-2:1-410,Q05343:1-467); assay: EMSA; with and without T3 / 9-cis RA; GST alone does not interact with the complex; on ice; details: tags: pCMVhTRα and pBKCMVrRXRα, rabbit reticulocyte lysate TNT; label: 32P (dCTP)
T1 sequence 1: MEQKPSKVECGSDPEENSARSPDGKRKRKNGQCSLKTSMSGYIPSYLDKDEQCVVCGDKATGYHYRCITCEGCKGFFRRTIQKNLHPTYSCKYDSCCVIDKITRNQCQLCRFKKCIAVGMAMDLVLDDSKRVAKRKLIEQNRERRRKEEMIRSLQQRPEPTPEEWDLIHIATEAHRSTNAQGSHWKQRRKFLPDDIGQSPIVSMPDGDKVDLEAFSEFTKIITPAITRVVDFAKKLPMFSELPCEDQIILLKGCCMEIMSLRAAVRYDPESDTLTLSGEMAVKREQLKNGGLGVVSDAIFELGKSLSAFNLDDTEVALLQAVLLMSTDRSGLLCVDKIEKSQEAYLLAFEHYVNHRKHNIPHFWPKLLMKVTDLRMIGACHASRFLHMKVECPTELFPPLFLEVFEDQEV
T1 sequence 2: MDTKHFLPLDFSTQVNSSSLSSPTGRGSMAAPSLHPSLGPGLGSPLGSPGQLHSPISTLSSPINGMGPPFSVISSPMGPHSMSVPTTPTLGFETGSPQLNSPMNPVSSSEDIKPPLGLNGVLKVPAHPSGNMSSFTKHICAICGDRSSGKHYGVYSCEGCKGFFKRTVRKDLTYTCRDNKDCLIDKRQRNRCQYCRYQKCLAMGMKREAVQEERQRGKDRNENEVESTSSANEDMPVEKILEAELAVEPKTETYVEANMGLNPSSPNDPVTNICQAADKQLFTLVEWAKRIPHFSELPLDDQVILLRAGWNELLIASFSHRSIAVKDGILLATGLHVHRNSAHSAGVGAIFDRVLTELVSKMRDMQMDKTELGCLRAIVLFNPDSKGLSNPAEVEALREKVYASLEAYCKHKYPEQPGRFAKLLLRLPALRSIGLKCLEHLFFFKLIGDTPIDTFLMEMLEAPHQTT

[2] = target: T2, TRβ/RXRα heterodimer (Homo sapiens (TRβ) / Rattus norvegicus …, UniProt P10828;Q05343 P10828:1-461,Q05343:1-467); assay: EMSA; oligomeric complex with GST-RAP250; details: tags: pCMVhTRβ and pBKCMVrRXRα, rabbit reticulocyte lysate TNT; label: 32P (dCTP)
T2 sequence 1: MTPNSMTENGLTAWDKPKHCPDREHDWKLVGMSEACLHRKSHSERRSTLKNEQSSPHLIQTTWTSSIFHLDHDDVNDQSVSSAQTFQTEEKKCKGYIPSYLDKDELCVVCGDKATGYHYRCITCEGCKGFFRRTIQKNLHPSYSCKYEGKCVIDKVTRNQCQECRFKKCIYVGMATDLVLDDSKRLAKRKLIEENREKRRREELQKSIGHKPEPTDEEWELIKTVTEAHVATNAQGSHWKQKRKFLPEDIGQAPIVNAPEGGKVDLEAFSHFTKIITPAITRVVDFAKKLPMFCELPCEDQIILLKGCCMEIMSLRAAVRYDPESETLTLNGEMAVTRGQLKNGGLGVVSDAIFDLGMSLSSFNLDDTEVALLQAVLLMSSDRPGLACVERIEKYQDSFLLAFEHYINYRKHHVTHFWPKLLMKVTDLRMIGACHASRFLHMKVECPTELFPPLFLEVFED
T2 sequence 2: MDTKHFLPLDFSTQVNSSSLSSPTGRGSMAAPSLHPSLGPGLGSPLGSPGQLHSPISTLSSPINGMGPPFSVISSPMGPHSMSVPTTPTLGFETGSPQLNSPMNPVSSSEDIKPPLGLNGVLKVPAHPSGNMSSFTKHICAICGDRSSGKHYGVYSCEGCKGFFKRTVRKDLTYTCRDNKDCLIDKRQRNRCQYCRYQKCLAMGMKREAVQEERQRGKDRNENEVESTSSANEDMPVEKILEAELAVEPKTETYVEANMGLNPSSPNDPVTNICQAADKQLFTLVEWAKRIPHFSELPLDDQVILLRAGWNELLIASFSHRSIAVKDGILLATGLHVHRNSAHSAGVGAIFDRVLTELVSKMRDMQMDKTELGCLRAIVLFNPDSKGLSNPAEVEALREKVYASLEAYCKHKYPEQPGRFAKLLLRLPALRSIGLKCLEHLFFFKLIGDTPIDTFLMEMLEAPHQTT

[3] = target: T3, TRα/RXRα + GST-RAP250 (818-931) complex (Homo sapiens (TRα) / Rattus norvegicus …, UniProt P10827-2;Q05343;Q9JL19 P10827-2:1-410,Q05343:1-467,Q9JL19:818-931); assay: EMSA; weak supershift without ligand, pronounced with T3 and/or 9-cis RA; details: tags: GST-RAP250 purified from E. coli; label: 32P (dCTP)
T3 chain 1: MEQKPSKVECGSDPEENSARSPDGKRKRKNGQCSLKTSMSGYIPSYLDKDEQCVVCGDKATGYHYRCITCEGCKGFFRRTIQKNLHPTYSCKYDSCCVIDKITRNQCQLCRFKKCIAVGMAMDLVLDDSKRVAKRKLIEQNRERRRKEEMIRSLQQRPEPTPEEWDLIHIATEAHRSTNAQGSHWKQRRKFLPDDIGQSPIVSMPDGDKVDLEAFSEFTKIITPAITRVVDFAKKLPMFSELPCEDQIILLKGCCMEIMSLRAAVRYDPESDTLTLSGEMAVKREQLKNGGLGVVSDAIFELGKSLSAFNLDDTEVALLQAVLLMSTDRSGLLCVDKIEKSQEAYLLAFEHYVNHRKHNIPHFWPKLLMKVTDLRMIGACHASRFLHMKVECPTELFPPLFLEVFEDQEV
T3 chain 2: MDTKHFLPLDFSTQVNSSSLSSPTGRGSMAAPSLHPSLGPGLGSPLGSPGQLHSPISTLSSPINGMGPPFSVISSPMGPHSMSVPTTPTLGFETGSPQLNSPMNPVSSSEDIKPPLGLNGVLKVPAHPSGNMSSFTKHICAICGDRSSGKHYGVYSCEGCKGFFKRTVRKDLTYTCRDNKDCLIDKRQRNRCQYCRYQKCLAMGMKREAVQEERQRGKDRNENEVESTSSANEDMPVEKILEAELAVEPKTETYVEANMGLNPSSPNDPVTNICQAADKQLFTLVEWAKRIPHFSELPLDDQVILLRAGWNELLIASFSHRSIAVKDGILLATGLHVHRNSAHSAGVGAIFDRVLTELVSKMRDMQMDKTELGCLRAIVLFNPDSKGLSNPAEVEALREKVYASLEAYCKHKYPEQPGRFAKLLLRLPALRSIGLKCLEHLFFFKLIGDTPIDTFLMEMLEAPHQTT
T3 chain 3: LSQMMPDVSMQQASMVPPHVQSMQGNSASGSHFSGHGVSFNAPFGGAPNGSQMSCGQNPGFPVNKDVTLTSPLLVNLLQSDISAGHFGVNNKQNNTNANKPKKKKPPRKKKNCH

Measured: binding result

B1: DR4-TRE (dsDNA)
DNA 1: TCGATCAGGTCATTTCAGGTCAGAG
DNA 2: CTCTGACCTGAAATGACCTGATCGA
binds: [1] | [2] | [3]
